B1: thrombin aptamer (15-mer with T5 tail) (ssDNA)
DNA: GGTTGGTGTGGTTGGTTTTT
B2: poly T control (ssDNA)
DNA: TTTTTTTTTTTTTTTTTTTT

Tests used:
alpha-thrombin [1] = target: T1, alpha-thrombin (Homo sapiens, UniProt P00734;P00734 P00734:328-363,P00734:364-622); experiment: membrane-type surface stress sensor; voltage difference vs poly T control; 240 nM thrombin in PBS
alpha-thrombin [2] = target: T1, alpha-thrombin; experiment: negative control on membrane-type surface stress sensor, used as reference for voltage difference; 240 nM thrombin in PBS

Binder	binding result (alpha-thrombin [1])	binding result (alpha-thrombin [2])
B1	binds	
B2		no binding

Reference: patent publication US20230093239 (published 2023)
